Measured values: the supplement of paper PMC7125110
± gives the standard error. Fewer inactive variants are shown than the library holds.

B1: glmS ribozyme (parent)
chain: AUAAAAGCGCCAGAACUACAGAAAUGUAGUUGACGAGGAGGAGGUUUAUCGAAUUUUCGGCGGAUGCCUCCAAA

How the values were obtained:
Conditions in all cases: with glucosamine-6-phosphate
glucosamine-6-phosphate [1] = variants of: B1; assay: self-cleavage kobs at 40 uM GlcN6P; higher = faster cleavage; RNA array
Procedure, shortened: (§1)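 Tiles bearing barcoded ribozyme variants, transcribed in situ by E. coli RNA polymerase on sequenced MiSeq chips, were imaged over ~14 h at 37 °C using a hybridised Cy3 probe. Glucosamine-6-phosphate was supplied at 40 μM to 10 mM in HEPES/KCl/Mg(OAc)2 buffer. kobs came from one- or two-exponential decay fits to normalised per-tile medians, and weighted Michaelis–Menten fits then provided kcat and KM.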

glucosamine-6-phosphate [2] = variants of: B1; assay: self-cleavage kobs at 10000 uM GlcN6P; higher = faster cleavage; RNA array
Procedure, shortened: as §1

glucosamine-6-phosphate [3] = variants of: B1; assay: self-cleavage kobs at 160 uM GlcN6P; higher = faster cleavage; RNA array
Procedure, shortened: as §1

glucosamine-6-phosphate [4] = variants of: B1; assay: self-cleavage kobs at 640 uM GlcN6P; higher = faster cleavage; RNA array
Procedure, shortened: as §1

glucosamine-6-phosphate [5] = variants of: B1; assay: self-cleavage kobs at 2500 uM GlcN6P; higher = faster cleavage; RNA array
Procedure, shortened: as §1

Variant	self-cleavage kobs at 40 uM GlcN6P (glucosamine-6-phosphate [1]) [s⁻¹]	self-cleavage kobs at 10000 uM GlcN6P (glucosamine-6-phosphate [2]) [s⁻¹]	self-cleavage kobs at 160 uM GlcN6P (glucosamine-6-phosphate [3]) [s⁻¹]	self-cleavage kobs at 640 uM GlcN6P (glucosamine-6-phosphate [4]) [s⁻¹]	self-cleavage kobs at 2500 uM GlcN6P (glucosamine-6-phosphate [5]) [s⁻¹]
G29U U31C A48C	< 1e-05	< 1e-05			
G13U A33C	< 1e-05		< 1e-05	< 1e-05	< 1e-05
U2C G9U C58U		< 1e-05	< 1e-05		
G43U G51A U65G G66A	< 1e-05				
U2C	0.000889 ± 0.00014	0.0584 ± 0.014		0.0102 ± 0.0023	0.00926 ± 0.003
A39U G51U	< 1e-05	< 1e-05		< 1e-05	
G38C G63U	< 1e-05				
A36C U45C			< 1e-05	< 1e-05	< 1e-05
G7C A36G A39G C67U			< 1e-05	< 1e-05	< 1e-05
G9A A14U A36C U46G			< 1e-05		< 1e-05
U55A C71U	0.00109 ± 0.00019	0.0549 ± 0.013	0.00212 ± 0.00076	0.0121 ± 0.0034	0.00755 ± 0.0025
G13C G35A	< 1e-05	< 1e-05	< 1e-05	< 1e-05	< 1e-05
G35U U46G	< 1e-05	< 1e-05	< 1e-05	< 1e-05	< 1e-05
A52C U56A	< 1e-05			< 1e-05	
A36C U49A G62C C70U	< 1e-05	< 1e-05			
G35U A42G	< 1e-05	< 1e-05	< 1e-05	< 1e-05	< 1e-05
G62A C67A	< 1e-05	< 1e-05			
G29A G66A	7.16e-05 ± 1.8e-05	0.00305 ± 0.00076			
A6G G32A U49G U55A	< 1e-05	< 1e-05			
G7A G51A C67A	< 1e-05	< 1e-05			
G29A C50G A53U G66U	5.27e-05 ± 2.6e-05				
G32A G41C	< 1e-05	3.31e-05 ± 8.8e-06		< 1e-05	
G60U C68U		< 1e-05	< 1e-05		
G35A C58G			< 1e-05		< 1e-05
A14G C50A G51A	< 1e-05				< 1e-05

Variant	self-cleavage kobs at 40 uM GlcN6P (glucosamine-6-phosphate [1]) [s⁻¹]	self-cleavage kobs at 10000 uM GlcN6P (glucosamine-6-phosphate [2]) [s⁻¹]	self-cleavage kobs at 160 uM GlcN6P (glucosamine-6-phosphate [3]) [s⁻¹]	self-cleavage kobs at 640 uM GlcN6P (glucosamine-6-phosphate [4]) [s⁻¹]	self-cleavage kobs at 2500 uM GlcN6P (glucosamine-6-phosphate [5]) [s⁻¹]
G35C C67G			< 1e-05	< 1e-05	< 1e-05
U56G G62U C68G	< 1e-05	< 1e-05			
A15G G29U C34U			< 1e-05		
U31A G59C	< 1e-05	< 1e-05	< 1e-05	< 1e-05	< 1e-05
G7U G41U G59U A64G		< 1e-05	< 1e-05		< 1e-05
A33C G51A G60C	< 1e-05			< 1e-05	
G9U C10G C11U C70U			< 1e-05		< 1e-05
A42G G43U	< 1e-05		< 1e-05	< 1e-05	< 1e-05
U49A U54A C70G			4.17e-05 ± 1.8e-05		
C10G G37U A42C	< 1e-05				
C8G U45C	< 1e-05	< 1e-05	< 1e-05	< 1e-05	< 1e-05
G41A U57C	< 1e-05		< 1e-05	< 1e-05	
A48C C50A A52G			< 1e-05		< 1e-05
C10A U30G A39U C67A	< 1e-05				
A12G C58U C61U	< 1e-05				
U55C C68A	< 1e-05		< 1e-05	< 1e-05	< 1e-05
A12C A14C G60A A64C	< 1e-05				
G29A A48U U54A	< 1e-05	3.57e-05 ± 1.5e-05			
A15C A39U A42C C67G			< 1e-05	< 1e-05	< 1e-05
U31C G63C	< 1e-05	< 1e-05	< 1e-05	< 1e-05	
C10U C16U U47C U65C	< 1e-05				
A33C G59C	< 1e-05	< 1e-05	< 1e-05	< 1e-05	< 1e-05
U47C C61G C71U	< 1e-05	< 1e-05			
C11G G32A U65G		< 1e-05	< 1e-05	< 1e-05	
G35C U46C C50A		< 1e-05	< 1e-05		

Variant	self-cleavage kobs at 40 uM GlcN6P (glucosamine-6-phosphate [1]) [s⁻¹]	self-cleavage kobs at 10000 uM GlcN6P (glucosamine-6-phosphate [2]) [s⁻¹]	self-cleavage kobs at 160 uM GlcN6P (glucosamine-6-phosphate [3]) [s⁻¹]	self-cleavage kobs at 640 uM GlcN6P (glucosamine-6-phosphate [4]) [s⁻¹]	self-cleavage kobs at 2500 uM GlcN6P (glucosamine-6-phosphate [5]) [s⁻¹]
C10G A42G	< 1e-05		< 1e-05	< 1e-05	
G37A A39U U54C			8.28e-05 ± 3.4e-05	0.00016 ± 1.9e-05	0.000423 ± 6.7e-05
U69C C71G	3.93e-05 ± 1.3e-05	6.79e-05 ± 9e-06	0.000225 ± 0.00011	6.76e-05 ± 1.6e-05	7.01e-05 ± 1.5e-05
A6U U57G	< 1e-05				
G37C U54C C61U C67G	< 1e-05	< 1e-05			
A6G G44A C71A		< 1e-05	< 1e-05	< 1e-05	< 1e-05
A6C C11U C16U U30G A39U G41U U54G U69G			< 1e-05		
A6G C16U U30A G43U G62U C70A	< 1e-05	< 1e-05			
G9A A36U C68U			< 1e-05	< 1e-05	
G41U C68U U69C			< 1e-05	< 1e-05	< 1e-05
A14G A52G	9.65e-05 ± 1.7e-05	0.00467 ± 0.001	0.000152 ± 4e-05	0.00106 ± 0.00018	0.00234 ± 0.00051
G13U G37C U45C C68U			< 1e-05		< 1e-05
A53U U56G	0.000405 ± 6.8e-05	0.0151 ± 0.004	0.000558 ± 0.00015	0.00241 ± 0.00042	0.00421 ± 0.0011
C58U G63A		< 1e-05	< 1e-05		
U30G G40A			0.000128 ± 3.7e-05	0.000261 ± 6.3e-05	0.000813 ± 0.00013
A53C C68A	< 1e-05		< 1e-05	< 1e-05	
C34U U54A	< 1e-05	< 1e-05		< 1e-05	
G7U G41U U46A G62U	< 1e-05	< 1e-05		< 1e-05	< 1e-05
G35C G60U G62C			< 1e-05	< 1e-05	
U31G A39C G44C	< 1e-05				
C10A G35A A39G			< 1e-05		< 1e-05
G43A G62C U65C C68G	< 1e-05				
C11U G40C G43A G60U U69G C70U			< 1e-05		< 1e-05
C10A A14C A42C G63A	< 1e-05	< 1e-05	< 1e-05		
A33G C34A U55A C70A			0.00034 ± 0.00013	9.12e-05 ± 3.4e-05	

Variant	self-cleavage kobs at 40 uM GlcN6P (glucosamine-6-phosphate [1]) [s⁻¹]	self-cleavage kobs at 10000 uM GlcN6P (glucosamine-6-phosphate [2]) [s⁻¹]	self-cleavage kobs at 160 uM GlcN6P (glucosamine-6-phosphate [3]) [s⁻¹]	self-cleavage kobs at 640 uM GlcN6P (glucosamine-6-phosphate [4]) [s⁻¹]	self-cleavage kobs at 2500 uM GlcN6P (glucosamine-6-phosphate [5]) [s⁻¹]
U30A U31A	0.000419 ± 7.6e-05	0.0264 ± 0.0056	0.00152 ± 0.00033	0.00269 ± 0.00057	0.0075 ± 0.0013
A42G U47A	0.000848 ± 0.00018	0.00752 ± 0.0028	0.00279 ± 0.0011	0.00967 ± 0.0013	0.0269 ± 0.0085
C11U A64U	< 1e-05		< 1e-05	< 1e-05	
G35C C50A G51U A52C			< 1e-05	< 1e-05	
G9C U47C A53G G62A C68G	< 1e-05	< 1e-05			
A6G U55G G66C C70A	0.000223 ± 8.2e-05	0.000165 ± 5.3e-05		0.000697 ± 0.00025	0.000623 ± 0.0002
C8G U31A U56A C70A	< 1e-05	< 1e-05			
G9U C68U C70U	< 1e-05	< 1e-05	< 1e-05	< 1e-05	< 1e-05
C50G G62U G66C C70A			7.6e-05 ± 1.6e-05	0.000118 ± 2.5e-05	
A42G G44A A48G U57C C67A	< 1e-05				
C16G G37A C68U	< 1e-05				
A33G G63A U65G	< 1e-05				
A14G C50G C71U	0.000639 ± 0.00021	4.82e-05 ± 2e-05	0.000245 ± 7.3e-05	0.00131 ± 0.00027	
G62A A64G	< 1e-05				
A14G A39G G41A U55G U69C A73U	< 1e-05				
G44U C50U C67G	< 1e-05				
G29C A48C G62U			< 1e-05	< 1e-05	< 1e-05
A15G G38A G60U C70G			< 1e-05		< 1e-05
G13C A36G A39U	< 1e-05			< 1e-05	< 1e-05
A39U U54C G62C			< 1e-05	< 1e-05	< 1e-05
U55A C58U		7.74e-05 ± 6.6e-06	< 1e-05		
A36C G51A	< 1e-05	< 1e-05			
U31G G63A	< 1e-05	< 1e-05	< 1e-05	< 1e-05	< 1e-05
